Source: US20240026407A1, “MODIFICATION OF SAPONINS” (GLAXOSMITHKLINE BIOLOGICALS SA, priority 2020, published 2024)

Key:
Assay type in all cases: biochemical, Quillaja saponaria
[1] = Experiment 6-1: screening of rhamnosidases for derhamnosylation of saponins in treated bark extract (2%), QS-17 2296 to QS-18 2150 (PAR %); conditions: TBE 2%, pH 7.5, 30 degC, 18 h; TIC peak area ratio percent of rhamnosylated starting saponin to derhamnosylated product, LCMS/MS; negative controls 4.876, 5.225
[2] = Experiment 6-1: screening of rhamnosidases for derhamnosylation of saponins in treated bark extract (2%), desglucosyl-QS-17 2134 to QS-21 1988 (PAR %); conditions: TBE 2%, pH 7.5, 30 degC, 18 h; TIC peak area ratio percent, LCMS/MS; negative controls 2.719, 2.158
[3] = Experiment 6-1: screening of rhamnosidases for derhamnosylation of saponins in treated bark extract (2%), QS-17 2310 to QS-18 2164 (PAR %); conditions: TBE 2%, pH 7.5, 30 degC, 18 h; TIC peak area ratio percent, LCMS/MS; negative controls 3.061, 2.429
[4] = Experiment 6-1: specificity of rhamnosidases towards other rhamnose residues (C3 saccharide rhamnose, C28 saccharide rhamnose); conditions: TBE 2%, pH 7.5, 30 degC, 18 h; LCMS/MS; negative controls 0.18, 0.17

Molecule | QS-17 (PAR %) [1] [%] | Peak75 (PAR %) [2] [%] | Peak57 (PAR %) [3] [%] | ratio PP/QS-21 [4]
1022 (protein, Catenovulum agarivorans) MRKSRSLGLGLVKYILIVVALVGCIQTSPTMDESAINHQAQTIYLRGGFNGWSTATAFDRTEQAGIYVAKTKITMGNHGFKLAPADWSFAWVVSAHENQLVELNKSYRLNTAGGEEDSLFIETRGLYQFTLDITQANQPKLLVKLLSADSAKTPPPHYGEMTSLEFNRFNGEKVEAVFSAKATNNGLREYVHSTTQSLRDPVPSYSRYQEDIAHPRVRSGNIAFDALFALAVDEMKLNSVEQIKDGNYNNGQAIDCSCFETGEKWNYVWTRDLSYAAHLSLAQFDAQRVENSLLFKVSNLRASAPISPFLAGNAPYTQIIQDTGSGGSWPVSTDRMTWAFGATALLANLAEPQRSQFARKAFTALVNTIENDRLVAFDSHLGLYLGEQSFLDWREQSYASWIVDDLSSMSTAISLSTNAGHYQALVLAADLAGQLGDVPAAKKYKGWASALKNAINQHLWLEEKGLYSSLTSGHYHKVALEKFDWLGQSLAIVTGIASDEQARAILSSYPHGPMGAAVIFPQQPNIPVYHNRAIWPFVTAYGLNAAVKGKNVAVTQAALDTLTRAAALNLSNMENLEWLSSEPILLDKTHPQLSGPVINSKRQLWSVAAYLNLVSNTIFGAQPSQQGIEFRPFIPKSFKDQWFKHSQVINLINYQWRGKQFDLQLKFAPSNKKFGAYVVNRVKVNGLAHSGVLVEQALKQHNLIEIELVLDNTVDNNINLVDSEPLAFDPLVYAPLEPKLSVVAKANDYVIQIEDKGNANLTSAAIEYEIYRDGNLLTRVPAGAGVSQWLDKGQAQQAHCYAVAARFVKSQNQSHLSEVVCMGERMQIPVADQRIQSNKPKKILGEQLIFSQWGEADDTLQVHFSIDQPGKYAIQFNYHNPANAINLGISNGVKWLEVVNSSNQQSVKQAAVQFPHTRVDKTQFGDNLSTPVEIELAAGDYKLHLHDFYNMSYLQSNKTYTAAGGMKGISNKFDIYAVTFVLLPLK | 5.190 | 2.368 | 2.882 | 0.15
1005 (protein, listed as Enterococcus casseliflavus) MTKKWQATWIEPQQEPTRKEPPFSLADMFSGKKVVQDPPEERLLPPHYLKKIFTVENKSIKQASLTMTAHGIYQAKINGQAVSEAIFAPDYTSYTQYLQYQTYDVTHMLKEKNVWSVTLADGWYAGRVSVSGGSAQFGDRLGILGEIEIYYTDGTYEIIVTDEDFVSSHGKYVYSDLFIGEKQDLRLEKENWETDFDLTGFTKVSKADYGFDHLTPQRGPQVKRQEKLAAKSIWWEKDAVIVDFGQVIAGRVQLQIPLADGQEITIEHSEVLDREGHFFNNIVGRNKDQKDVFIGNGREACLEPDFTFHGFRYIKIDGLDVLPDKQSVWAYAIYSDMKATGSFTTSNQKINQLIENIQWSQKGNMLSIPTDCPQRERVGWTGDIQVFGPTATFFMDVYDFLGRWLDNVRLEQQADGQIVDYTPAPRDYFEGESLTGSLSSAGWGDAIVLLPWTLYQRYGKLEILVENYQAMKRWLSFSRKSAAGDKTDDKQYLWDTKFHFGDWMFPSFMIGEDAKGPMETAFVTKDLFGTAFLAHSSQLFAQISQLLDEEEENWSDFSNKVKAAFQKYYWRDDHLTADFQGSYVIALAFDLLDETASKAAAARLTELIIANNYCLDTGFLSIPYLLDVLCDYGYQELALKLLLQEECPSWLYEVNHGATTIWESWASIQPDGTVCDFSFNHYAFGCVGDWLVRRLAGLQVTEPGFTFFTISPLEQTAISSYHLNYTTAYGDIEIERSNDQFHLSVPQNTKAIFQYGETSKVLTSGKHHLTIKGEKIYE | 5.166 | 2.767 | 2.799 | 0.17
1049 (protein, listed as Chitinophaga pinensis) MKQCMGIWLLFLSLQTWGQQLQVVHLRTDNKTNPLGCQLSPRLSWQLSASYNNCVQQAYQLQFSDDSTTLNSKKHTGKHVESADPFLTLPAAFAGITLLPAHTYYWRVQVWDKAGRPSGWSEVASFINALNGPADWKGAKWIGYEDVVDSMRVVPGVHNGTDKFYQKHKARQRTIVPLFRKAFSVQGKVKSALLYISGLGQYEASLNGVRLGDNFLAPGWTHYDETALYNTYDLTNVLQAGENALGVIVGNGFFNVNKERYRKLSVVYGMPRMICRLLITYENGKTTNIVSGTDWRTSASPITFTSIYGGEDYDAGKEQSGWDQPGFNDTEWKPAIVVKATEKRLLPEEDYPVKVMEVLPVRRITQPQPAVYMYDFGQNASGIIGLKIKGKKGQTVKLIPAELTNDKQLANQKATGSPYYFSYTLKGDGIETWQPRFSYYGFRYVQVEGAAPDTAVHTGDVPEIISLELLHTRNAAPVNGTFSCSNDLFNRIHTLILWAIKSNMQSVLTDCPHREKLSWLEQDYLMGNAIQYSYDIDLLYRKLIRDMKEAQTGEGLVPDIAPEFVFFDDHGFGFRDSPEWGSAGVIVPWLHYRWYGDKTVISDAYPMVKKYVAYLGAKAQHNILSYGLGDWFDNGPQRPGVAQLTPKGVTATAIYYYDLVLAGNMADLLGKTAEAKAFRVQADKVKATFNGEYFHTGTKVYSTGSQTAMAMPLCVGLVEEQYRQAVFSNMVDSIRQQRNQLTAGDIGFHFLVQALQEGGASDLLYEMNNRSDVPGYGFQLAKGATTLTESWAALEQVSNNHLMLGHLLEWFYTGLGGITQQAGSIGYKQLQICPEVVGDITWVKTSYNTPYGTVRSEWEKKDGGMLFRISIPPNSNAIVKLPAKREGRITADGKPLNNQDLSFEKERVVMYLGSGDYEFSTFK | 5.211 | 2.417 | 2.271 | 0.18
1070 (protein, listed as Thermobaculum terrenum) MRKIIAQDPFTRNDPGIPWDQRGQWPASWVAARRLPSPPYVVAYRLAFVLPQAATATLHVTADERYELFLDSERVGRGSERGDADHWFYETYELELPAGPHTLVARVWSLGPLAPYAQLSVRHGFLLAAEPPLTEALSTGIAPWEAKRLEGYSWVNPSPAWGTGGNIALSAAQFPWGVERGEGDGWEPVEVVERAVGRLMALEAPPQHLLRPATLPAMLEVPIRVGRVRHVSAPSSEEVSSLPIRAEQALDEPEWQAMLEGRSSVTVPPHTTRRVIIDLEDYYCAYPELVTSGGEGGAVRLHWAESLYEDGRGRHKGDRDAIEGKYFRGVGDVFLPDGGDSRRFDTLWWQAGRYLELLVRTADSPLTVASLRLRETRYPLEMESAIATGDPDLDATIPLMVRAMQMCSHETYMDCPYYEQLMYAGDTRLEALVTYVMTRDDRLPRKALRMFDASRLASGLTQARYPSRVRQIIAPFALWWVAMVCDYAYWRPGTEYVRELMPGVRATMEAFERWRGSDGLLESPEGWNVTDWVPEWPAGIPPEGEWGRSGLLNWHLALVTRMVADLERALGNPQMAEHFGARAREIADAALRAFWVPSRGLMADDTACQRFSEHTQCLAILSGLLPPAIEEQVGRSLLEARDIARTTIYFSHYLFEACRKLGRVDVLLARLGLWRELVDKGLRTTIEAPEPTRSDCHAWGAHPLYHLFATFLGIRPAGLGFSAVEIAPQPAALRRLEGRLVHPRGDVWVAMEVDEEQIRARVRLPEAVPGVFCWGSRRVPLRPGEETDVVLPRAQG | 5.168 | 2.275 | 3.311 | 0.18
994 (protein, listed as Catenulispora acidiphila) MLIRRRFATALALILAFAAVTPVASAAPSPSLSLSASSAGTEVSVSALQTDATTNPLGIDDPHPSLSWKLASQINGEYQSAYRIVVAGSQSDASAGVGSVWDSGEVASGNSVGIAYGGPALASEKTYYWAVQIWDEHGTASGWSAPAQWEMGLLNPGDWQGAQWISPTSASAASPLLRKDFTLAKPVARARAYVFGLGFYELHLNGGKVGDRVLEPASTPYAQRDLYAAYDVTGTVKQGGNAVGLWLGNGYDANFSQYGFRWLGPKQAIVLIDVTFSDGTHQAVTSDGSWTWSPSPITADGIYNGESYDARMVQPGWDAAGFSASSLQPVRTVAAPGGSLVADAMPPIRVTQTLNAVKLTSPSPGVYVYDFGQNVSGWEVLRTQGAAGSTVKMQTAEDLLANGTIDTTTNRNALSTDSYTLAGTGSTETYEPRFTYHGFRYVEVTGDPQTPVVSSLQARVVHADLASTSTFSSSDATLNQIWQNNQRTMLNNQMSTPTDNPVRDERTPPGMDVQAYHDASTAEFGMDTYYANYLRDMPPGTALPSDGGNAQQPDMGGDQVTLAWTLYQQYGDIATLAAMYPLMKKFVDTNATNVPGHIWSTGFGDWCPPDHSSNANGGMGNPSAGACTSEVPIVNTALSYLQASDVAKAATALGQAGDAAHYTQLAGDIANAFNAAFLNSDHASYGDGRETTSILPLAFGMVPAADVPAVGARLVDTVVRGNGGHLDTGIFGTRYLMDALAGIGRTDLAMTVLDQGTYPGYGFEIGKGATTDWEEWTYASSMESHDHAMFAGINASFASRLAGIEPTGPGYSTVSIAPQIPAGLQSVAASVSTVRGTVASSWSVSGGKVTMDVTVPVGATASVRVPSFGQGSVTTVSPAGAGAVQVSAGGTSSTYTVGSGSWEFTGSLVPASSTVLPGTWTQCAVETGNCSVAGTETVAFGAQGKYDYATVSGTVACSNTVFGDPDSGVSKACYAEPAPATTPGAWQQCAAETATCSFAGTETVAFGAQGKYTYATLTGGTPCTTTIFGDPAYGIPKSCFIEAPPPAATTWIPCAAETATCTLTASRDVAFGAHGDYAYRTANAPTTCTNAVFGDPAPGAVKACYLQ | 5.177 | 2.147 | 3.300 | 0.16
1031 (protein, listed as Pedobacter heparinus) MTNFSCIAKRITSFLMLFLSCSPFITAQVKSGTIVYPRGSFDADWISCPDVNLKSYGVFHMRKVFELTSRPKQFVVHVSGDQRYRLFANGTPVCFGPARGDLRNWNYETIDIAPYLKTGKNVLAVQLWNMGSGAPAAQLTYQTGFILQGNSNAEQMVNTNNSWRIIQNKGYFPEPFPPSRLASYIVGSCDSVVFKNYPFGWQNINYDDKSWLSPVSETKPRYYTEKRSLIPRSIPMMEEKIEPITGIVRILGTDTSAILNSFNKNGSITIPANTKATILFDRKTLTTAYPEITFSKGSNGKVKITYAESLFNSENLKGNRNEIKNKTIKGYYDVFLPDGGTAHTFRPLWTRTFRYIQFDITTGSEPMVIDKMQSVFTAYPFKEHAFFTSNDSTLHEIWDVSWRTARLCANETYMDCPYYEQLQYVGDTRIQALISLYVSGDDRLMRNAIEQFHQSQIPDGLTMDAYPAGGGKFIPPFSLFWIAMLHDFYWYRDDEKFIEKYLIPMEAILKWFEYRLDNNSGMLGKTGYWNFVDWSFSPKGIPSGGLEGNSSILSLQYVYALEQAAEIFAHAKQQQKADYYHNLGQKIKRAVYARCYDINNRLLADSPERKAFSQHANIWSIITDCIPFKDQEATMERIMNDSTLTATSLYYRFYYTKAMKKAGLGSLYLSSLRPWKQMLDLGFSTFPETLAPNVRSDCHAWSASPCYDFLATVCGIEPGTPGFATVRISPNLGNLKAVSGELPHPLGPIKVSYKKIKEGSYSAHIELPANLNGIFISKDQKVILTGGKQEITFKYE | 5.218 | 2.367 | 3.096 | 0.17
